This is an account of results in PMC10208570 (2023).

Like-named read-outs stand apart in the source and are kept apart here. Bridges are numbered along the chain shown (N, C = ends). Where no end group is shown, it is not given here.

Holding throughout (experiment): FP
For assay [1], the target named is T1, LptAm^Q62L (E. coli) (E. coli (ATCC 25922)).
T1 chain: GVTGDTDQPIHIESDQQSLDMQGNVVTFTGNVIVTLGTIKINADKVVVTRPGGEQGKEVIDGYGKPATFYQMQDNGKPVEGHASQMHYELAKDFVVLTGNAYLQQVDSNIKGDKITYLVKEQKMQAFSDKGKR

For assay [2], the target named is T2, K. pneumoniae LptAm (K. pneumoniae (ATCC 13883)).
T2 chain: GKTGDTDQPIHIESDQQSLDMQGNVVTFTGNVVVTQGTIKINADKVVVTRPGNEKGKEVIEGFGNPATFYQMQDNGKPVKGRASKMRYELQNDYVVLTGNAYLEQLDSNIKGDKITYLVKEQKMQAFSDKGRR

Assay [3] concerns the target T3, LptAm (E. coli), monomeric truncated variant of LptA (E. coli (ATCC 25922)).
T3 chain: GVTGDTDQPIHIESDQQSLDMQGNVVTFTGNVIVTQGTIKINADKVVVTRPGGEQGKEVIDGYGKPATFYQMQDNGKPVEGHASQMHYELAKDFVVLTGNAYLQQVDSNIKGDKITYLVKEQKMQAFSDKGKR

Assay [4] has as its target T1, LptAm^Q62L (E. coli).
For assay [5], the target named is T2, K. pneumoniae LptAm.
Assay [6] deals with T3, LptAm (E. coli), monomeric truncated ….
In assay [7] the target is K. pneumoniae LptAm^Q62L (K. pneumoniae (ATCC 13883)).
In assay [8] the target is T1, LptAm^Q62L (E. coli).
In assay [9] the target is T3, LptAm (E. coli), monomeric truncated ….

The term Ki denotes a measure of affinity in units of concentration, obtained from inhibition or displacement. Low values mean higher affinity, high ones lower affinity. The IC50 is the concentration that inhibits the measured activity by half. Low readings indicate higher potency, high ones lower potency. Take KKPVPIIYCNRRTGKCQRM (disulfide 9-16 (inferred)) [peptide 1]: the Ki amounted to 20.5 nM in [1], 0.9 nM in [2], 1.1 nM in assay [3] and 18.2 nM in assay [7]. Moreover, the IC50 in assay [4] was 30.4 nM; in assay [5] it was 9.6 nM; in assay [6] it was 6.6 nM; in [7], 20.8 nM.
Regarding GSKKPVPIIYCNRRTGKCQRM [Thanatin], it took 50 nM to reach half-maximal inhibition in [4] (IC50).

B1: mLptA (E. coli), LptA(25-185) E39V M47A R76A (domain or fragment)
chain: GAFAVTGDTDQPIHIVSDQQSLDAQGNVVTFTGNVIVTQGTIKINADKVVVTAPGGEQGKEVIDGYGKPATFYQMQDNGKPVEGHASQMHYELAKDFVVLTGNAYLQQVDSNIKGDKITYLVKEQKMQAFSDKGKRVTTVLVPSQLQDKNNKGQTPAQKKGN
With B1, the IC50 in [8] turned out to be 102 nM; in assay [9] it was 213 nM.
